This data set is described as follows: yeast display, Sf9 membrane polyspecificity reagent, FACS + sequencing; frameworks hold sequencing errors. A digest of the protocol:
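Nanobodies came from a synthetic yeast display library in Saccharomyces cerevisiae BJ5465, induced with galactose for 36–48 hours and stained for 1 hour at 4 °C with 10% biotinylated, detergent-solubilized Sf9 membrane reagent. Cells were enriched on streptavidin microbeads and then FACS-sorted, with low and high (top ~1%) gates set on anti-HA fluorescence for expression and streptavidin fluorescence for reagent binding. Each polyreactivity label reflects the gate a clone came from. Genes were amplified by colony PCR, sequenced by MiSeq 2 × 250 and filtered by CDR length.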
Take “QVQLVESGVGLVQAGGSLRLSCAASGSTFEYNAMGWYRQAPGKERELVASSTNYADSVKGRFTISRDNAKNTVYLQMNSLKPEDTAVYYCAREQGVNRNHDYWGQGTQVTVSS”: the “polyreactivity (PSR sort gate)” value is reported as “low polyreactivity”.

“QVQLVESGVGLVQAGGSLRLSCAASGSTFGRYAMGWYRQAPGKERELVARISWGGGSTYYADSVKGRFTISRDNAKNTVYILMISLKPEDSAVYDCATRVYRSAVSYDYWGQGTQVTVSS”: the “polyreactivity (PSR sort gate)” value is “high polyreactivity”.

Regarding “QVQLVESGVGLVQAGGSLRLSCAASGSTFVKYVIGWYRQAPGKERELVAAISRSGGSTYYADSVKGRFTISRDNAKNTDYLQMNSLKPDDTAVYYCAARLFYRLDYRGGYYYWGQGTQVTVSS”, the “polyreactivity (PSR sort gate)” value is given as “high polyreactivity”.

In the case of “QVQLVESGVGLVQAGGSLRLSCAPSGSIFGRNAMGWYRQAPGKERELVAAISGGGSTNYSDSVKGRFTISRDNAKNTVYLQMNSLKPEDTAVYYCNTYPGSRHWWYDYWGQGTQGTVSS”, the “polyreactivity (PSR sort gate)” value was “high polyreactivity”.

As for “QVQLVESGVGLVQAGGSLRLSCASSGRIFGHYAMGWYRQAPGTERELVAAISWRGGRTYYADSVKGRFTISRDHAKNTVYLQMNSLKPEDTAVYYCAAGSSRVFRKAGITRPSGLYYYWGQGTQVSVSS”, the “polyreactivity (PSR sort gate)” value is listed as “high polyreactivity”.

For “QVQLVESGVGLVQAGGSLRLSCASSGSIFGRYTMGWYRQAPGKERELVAAITLRGGSTYYADSVKGRFTISRDNAKNTVYLQMNSLNQEDSAVYYCANDGWKQSAYDYWGQGTQVTVSS”, the “polyreactivity (PSR sort gate)” value was “low polyreactivity”.

As to “QVQLVESGVGLVQAGGSLRLSCVASGLTFSRYAMGWYRQAPGKERELVAAISRRGGTTYYADSVKGRFTISRDNAKNTVYLQMKSLKPEDTAVYYCGAGYITWGSGNWVVTPYAYWGQGTQVSVSS”, the “polyreactivity (PSR sort gate)” value is on record as “high polyreactivity”.

Regarding “QVQLVESGVGLVQAGGSLRLSSAASGSIFHSYAMGWYRQAPGKERELVASITASGDSTYYADSVKGRFTISRDNAKNTVYLPMNSLKPEDTAVFYCNTQAVYGGGEGGYDYWGQGTQVTVSS”, the “polyreactivity (PSR sort gate)” value is “low polyreactivity”.

As to “QVQLVESGVGLVQAGGSLRLSSAASGSISYSYAMGWYRQAPGKERELVAAITWVGDSTYYADSVKGRFTISRDNAKNTVYLQMNRQKPEDTAVYYCAADLRFTYPVYRHGGGYDYWGQGTQVTVSS”, the “polyreactivity (PSR sort gate)” value is recorded as “low polyreactivity”.

On to “QVQLVESGVGLVQAGGSLRLTCAASGRIFDYYAMGWSRQAPGKETELVARISRGATTNYADSVKGRFTISRDNAKNTVYLQINSLKPEDTAVYSCNARQYLAYVSWKGMGFWGQGTQVTVSS”, for which the “polyreactivity (PSR sort gate)” value was “high polyreactivity”.

Take “QVQLVESGVGLVQAGGSLSLICAASGRIFWPNAMGSYRQAPGKERELVAAISRGGNTNYADSVKGRFTISRDNAKNTVYLQMNSLKPEDTAVYYCAARNFALGYRFDYWGQGTQVTVSS”: the “polyreactivity (PSR sort gate)” value is listed as “high polyreactivity”.

For “QVQLVESGVGLVQAGGSLSLSCAASGFTISLNTMGWYRQAPGKERELVAAITYSGTRTYYADSVKGRFTISRDNAKNTVDLQMNRLKPEDTAVYYCAARHGQSWQWLEYDYWGQGTQVTVSS”, the “polyreactivity (PSR sort gate)” value is reported as “low polyreactivity”.

Turning to “QVQLVESGVGLVQAGGSLSLSCAASGRIFTYNALGWYRQAPGKERELVAAISALGGITYYADSVKGRFTISRDNAKITVYLQMNSLKPEDTAVYYCNKRYSSWSGVHDYWGQGTQVTVSS”, the “polyreactivity (PSR sort gate)” value was “high polyreactivity”.

Take “QVQLVESGVGLVQAGGSVRLSCAASGRTFTRYAMGWYRQAPGKEREWVAAITWSGGSTYYADSVKGRFTISRDNAKNTVYLQMNSLKPEDTAVYYCNAQRYGLFGSEHGYWGQGTQVTVSS”: the “polyreactivity (PSR sort gate)” value was “high polyreactivity”.

For the sequence “QVQLVESGVGLVQAGGSVRLSCAASGRTFYRYAMGWYRQAPGKERELVAAISSGGSTYYADSVKGRFTISRDNAKNTVYLQMNSLKPEDTAVYYCNADYGRRNHMDYWGQGTQVTVSS”, the “polyreactivity (PSR sort gate)” value is “low polyreactivity”.

Regarding “QVQLVESGVGLVQAGVSLRLSCAASVSISTPYTMGWSRPAPGKERELVAAISWIGDTTSYADSVKGRFTISRDNAKNTVYLQMNRLKPEDTAVYYCNAEHRGYDYWGQGTQVTVSS”, the “polyreactivity (PSR sort gate)” value is “low polyreactivity”.

For the sequence “QVQLVESGVGLVQAVGSLRLSSPTSGIIFRYYSMVWYRHAPGKESEYVAVITRRGGGTYYAYSVKGRFTISRDNAKNTVYFEMNSLKPEDTAVYYCAKDFTGHYPKGFDYWGQGTQVTVSS”, the “polyreactivity (PSR sort gate)” value was “low polyreactivity”.

As for “QVQLVESGVGLVQSGGSLRLSCAASGFIFRWYAKGWYRQAPGKERELVAAISGGGSSTYYADSVKGRFTISRDNEKNTVYLQMNSLKPEDNAVYYCAAYNTYLGYPYYYWGQGTQVTVSS”, the “polyreactivity (PSR sort gate)” value is “high polyreactivity”.

On to “QVQLVESGVVLVEAGGSLRLSCAASGRILSVYAMGWYRQAPRKERELVAAIRRGVGSTYYADSVKGRFTISRDNAKNTVYLQMNSLKPEDTADYYCAPYSYHNRIRYDSWGQGTQVTVSS”, for which the “polyreactivity (PSR sort gate)” value is given as “high polyreactivity”.

For the sequence “QVQLVESGVVLVQAGGSLRLSCAASGSTFVRYAMGWYRQAPGKERELVAANSRSGGRTYYADSVKGRFTISRDNAKHTVYLQMNSLKPEDTAVYYCYPYYIASTFDYWGQGTQVTVSS”, the “polyreactivity (PSR sort gate)” value is listed as “high polyreactivity”.

Take “QVQLVESLGGLVQAGASLRLSCAASARTFVIYSMGSYREAPGKERELVAAITWNGETTYYADSVKGRFTISRDNAKNTVYLQMNSLKPEDTAVYYCAAETRSEYHYWGQGTQVTVSS”: the “polyreactivity (PSR sort gate)” value is recorded as “high polyreactivity”.

“QVQLVESLGGLVQAGGSLRLSCAASGRTFPGYAMGWYRQAPGKERELVAAISYTGTRTYYADSVKGRFTISRDNAKNTVYLQMNSLKPEDTAVYFCAAGVQRVSGSYGYWGQGTQVTVSS”: the “polyreactivity (PSR sort gate)” value was “high polyreactivity”.

On to “QVQLVESLGGLVQAGGSLRLSSAASGSIFRRYAMGWYREAPGKERELVAAITSGDTTKYADSLKGRFTISRDNAKNNVYLHMNSLKPEDTAVYYCNKKGWPRFVHGFLRRDDYWGQGTQVTLSS”, for which the “polyreactivity (PSR sort gate)” value is “low polyreactivity”.

With “QVQLVESRAGLVQAGGSLRLSCAASGSTRNRNVMGWYRPAPGKERELVAVITYGVGSTYYADSVKGRFTISRDNAKNTVYLQMNSLKPEDTAVYYCNKDPLVFDYWAQGTQVTVSS”, the “polyreactivity (PSR sort gate)” value is “low polyreactivity”.

Turning to “QVQLVESRGCLVQAGGSLRLSCAASGRIFYYYDMGWYRQAPGKERELVAAITYSDSSTYADSVKRRFTISRDNAKNTVYLQMNSLKPEDTAVYYCAADYVYPGVRLEMDYWGQGTQVTVSS”, the “polyreactivity (PSR sort gate)” value is given as “low polyreactivity”.

Regarding “QVQLVESRGCLVQAGGSLRLSCAASGSTFYPYAMGWYRQAPGKERELVAGITVIDGSTYYADSVKGRFTISRDNAKNTVYLQMNSLKPEDTAVYYCAFDAPNQVQEYGYWGQGTQVTVSS”, the “polyreactivity (PSR sort gate)” value is reported as “low polyreactivity”.

As for “QVQLVESRGFLVQAGGSLRLSCAAYGSSFFTYAMGWYRQAPRKERELVAGINWSGGSTYADSVKGRFTMSRDNAKNTVYLQMNSLKPEDTAVYFCAAKYYSERSRYHYWGQGTQVTVSS”, the “polyreactivity (PSR sort gate)” value is “low polyreactivity”.

In the case of “QVQLVESRGGIVQAGGSLRLSCAASGRIFQYYAKGWYRQAPGKEWELVAAIISSGGRTYYADSVKGRFTISRDNAKKTVYVQMNSLKPEDTAVYYCNAVLSTRGMDFWGQGTQVTVSS”, the “polyreactivity (PSR sort gate)” value is “high polyreactivity”.

On to “QVQLVESRGGLVQAGGSLPLSCAPSGRIFVRYAMGWYRQAPGKERELVAAISKSGGTTYYADSVKGRFTISRDNAKNTVYLQMNSLKPEDTAVYYCYALVRRRPGYIRYDYWGQGSQVTVSS”, for which the “polyreactivity (PSR sort gate)” value is “low polyreactivity”.

“QVQLVESRGGLVQAGGSLRLRCAASGRIIIAYMAWYRQAPGKERELVAAIDSGASTYYADSVKGRFTISRDNAKNNVYLQMNSLIAEDTAVYYCASDVVYDYGGMDYWGQGTQVTVSS”: the “polyreactivity (PSR sort gate)” value is “low polyreactivity”.

With “QVQLVESRGGLVQAGGSLRLSCAASGFIFKTNAMGWYRQAPVKERELVAAISNSDGSTYYADSVKGRFTISRDNAKNTVYLQMNSLKPEDTAVYYCAADRTDFWPYDYWGQGTQVTVSS”, the “polyreactivity (PSR sort gate)” value is given as “low polyreactivity”.

“QVQLVESRGGLVQAGGSLRLSCAASGFILSWYAMGWYRQARGKERELVAAISTSGDSTYYADSVKGRFTISRDNAKNTVYVQMNRLKPEDTAVYYCAAVKVSAGTSRGYYYWGPGTQVTVSS”: the “polyreactivity (PSR sort gate)” value is on record as “high polyreactivity”.

With “QVQLVESRGGLVQAGGSLRLSCAASGFTFERYTMGWYRQAPGKERELVAGINYSGGSTYYADSVKGRFTISRDNAKNTVYLQMNSLKPEDTAVYYCAKDFPYSRYRRRYYYWGQGTQVTVSS”, the “polyreactivity (PSR sort gate)” value is “high polyreactivity”.

“QVQLVESRGGLVQAGGSLRLSCAASGFTFRLYAMGWSRQAPGKERELVAALTGRGGNTYYADSVMGRFTISRDNAKNTVYLQRNSLNPEDTAVYYCNRYTQWVGYDYWGQGTQVTVSS”: the “polyreactivity (PSR sort gate)” value is “high polyreactivity”.

With “QVQLVESRGGLVQAGGSLRLSCAASGFTFSGNARGWYRQAPGKERECVAAISNRSGRTYYADSVKGRFTISRYNAKNTVYLQMNSLKPEDTAVYYCAAESIYTWGIRGDYWGHGTQVTVSS”, the “polyreactivity (PSR sort gate)” value is “high polyreactivity”.

Turning to “QVQLVESRGGLVQAGGSLRLSCAASGITFRYYAMGWYRQEPGKERELVAAINRGGDSTYYADSVKGRFTISRDIAKNTVYLQMNSLKPVDTAVYYCAASSSNKEYDYWGLGTQVTVSS”, the “polyreactivity (PSR sort gate)” value is reported as “high polyreactivity”.

On to “QVQLVESRGGLVQAGGSLRLSCAASGLIFLGYAMGWYRQAPGKERELVASIRTGGSTSYADSVKGRFTISRDNAKNTVYLQMNSLKPEDTAVYYCAADRGRPNLPGDYWGQGTQVTVSS”, for which the “polyreactivity (PSR sort gate)” value was “low polyreactivity”.

Take “QVQLVESRGGLVQAGGSLRLSCAASGNTFQPYAMGWYRQAPGKERELVAAITWSGDTTYYADSVKARFTISRDNAKNTVYLQMNSLKPEDTAVYYCYPYFWYPDGYTYDYWGQGTQVTVSS”: the “polyreactivity (PSR sort gate)” value is reported as “high polyreactivity”.

Consider “QVQLVESRGGLVQAGGSLRLSCAASGRIFAWNAMGWSRQAPGKERELVAVITSGGNTNYADSVTGRFTISRDNAKNTVYLQLNSLKPEDTAVYYCPKIGYAKRTRFWSHYDYWGQGTQVTVSS”, for which the “polyreactivity (PSR sort gate)” value is reported as “high polyreactivity”.

For the sequence “QVQLVESRGGLVQAGGSLRLSCAASGRIFSKYAMGWYRQAPGKERELVAGITIAGRTKYADSVKGRFTISRDNAKNTVYLQMNSQKPEDTAVYYCAARAQATGGYGYWGQGTQVTVSS”, the “polyreactivity (PSR sort gate)” value was “high polyreactivity”.

For the sequence “QVQLVESRGGLVQAGGSLRLSCAASGRIIGYNAMGCYRQAPGKERELVAAINSDGSKNYADSVKGRFTISRDNAKNTVYLQMNSLKPEDTAVYYSIKELYPVGDYEYWGQGSQVTVSS”, the “polyreactivity (PSR sort gate)” value is on record as “low polyreactivity”.
